Experimental data taken from US9896495 (ZEALAND PHARMA A S, dated 2018).
*1 amine or outer side, *2 acyl side, *3 side chain or, on linkers, in order; H or OH if unused. Side-chain parts run from the residue outwards. [ ]: non-standard residue; d: D form. The star is where a group is joined. C18 diacid = O=C(O)CCCCCCCCCCCCCCCCC(=O)*; γGlu = O=C(O)[C@H](CCC(=O)[*:2])N[*:1]; Ac4c = NC1(C(=O)O)CCC1; Aib = CC(C)(N)C(=O)O

T1: endogenous GLP-1 receptor of a murine insulinoma cell line (murine, UniProt O35659 22-463)
T1 sequence (looked up): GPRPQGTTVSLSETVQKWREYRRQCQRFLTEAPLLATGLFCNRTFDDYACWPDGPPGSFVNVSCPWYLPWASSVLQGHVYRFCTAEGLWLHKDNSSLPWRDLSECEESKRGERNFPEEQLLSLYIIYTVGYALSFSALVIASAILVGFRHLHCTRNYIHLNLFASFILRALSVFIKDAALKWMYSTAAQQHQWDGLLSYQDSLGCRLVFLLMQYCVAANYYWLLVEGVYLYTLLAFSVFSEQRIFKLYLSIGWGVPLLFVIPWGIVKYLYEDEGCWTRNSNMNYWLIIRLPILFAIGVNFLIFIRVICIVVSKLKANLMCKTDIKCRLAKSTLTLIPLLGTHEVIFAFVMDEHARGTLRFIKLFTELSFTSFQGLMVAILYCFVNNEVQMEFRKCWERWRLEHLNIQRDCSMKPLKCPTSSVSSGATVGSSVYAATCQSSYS

B1: H-H-Ac4c-QGTFTSDYSKYLDERRAKDFIEWLE-K([17-carboxy-heptadecanoyl]-isoGlu-GSGSGG)-A-NH2 (peptide)
peptide: HXQGTFTSDYSKYLDERRAKDFIEWLEKA
modifications: Ac4c at position 2; Lys 28 side chain conjugated to [17-carboxy-heptadecanoyl]-isoGlu-GSGSGG; C-terminal amide
B2: H-H-Ac4c-QGTFTSDYSKYLDERAAKDFIEWLE-K([17-carboxy-heptadecanoyl]-isoGlu-GSGSGG)-A-NH2 (peptide)
peptide: HXQGTFTSDYSKYLDERAAKDFIEWLEKA
modifications: Ac4c at position 2; Lys 28 side chain conjugated to [17-carboxy-heptadecanoyl]-isoGlu-GSGSGG; C-terminal amide
B3: H-H-Aib-QGTFTSDYSKYLE-K([17-carboxy-heptadecanoyl]-isoGlu-GSGSGG)-RAAKDFIEWLESA-NH2 (peptide)
peptide: HXQGTFTSDYSKYLEKRAAKDFIEWLESA
modifications: Aib at position 2; Lys 16 side chain conjugated to [17-carboxy-heptadecanoyl]-isoGlu-GSGSGG; C-terminal amide
B4: H-H-Ac4c-QGTFTSDYSKYLDE-K([17-carboxy-heptadecanoyl]-isoGlu)-AAKDFIEWLESA-NH2 (peptide)
peptide: H-H[Ac4c]QGTFTSDYSKYLDEK([γGlu-C18 diacid])AAKDFIEWLESA-NH2
SMILES: CC[C@H](C)[C@H](NC(=O)[C@H](Cc1ccccc1)NC(=O)[C@H](CC(=O)O)NC(=O)[C@H](CCCCN)NC(=O)[C@H](C)NC(=O)[C@H](C)NC(=O)[C@H](CCCCNC(=O)CC[C@H](NC(=O)CCCCCCCCCCCCCCCCC(=O)O)C(=O)O)NC(=O)[C@H](CCC(=O)O)NC(=O)[C@H](CC(=O)O)NC(=O)[C@H](CC(C)C)NC(=O)[C@H](Cc1ccc(O)cc1)NC(=O)[C@H](CCCCN)NC(=O)[C@H](CO)NC(=O)[C@H](Cc1ccc(O)cc1)NC(=O)[C@H](CC(=O)O)NC(=O)[C@H](CO)NC(=O)[C@@H](NC(=O)[C@H](Cc1ccccc1)NC(=O)[C@@H](NC(=O)CNC(=O)[C@H](CCC(N)=O)NC(=O)C1(NC(=O)[C@@H](N)Cc2c[nH]cn2)CCC1)[C@@H](C)O)[C@@H](C)O)C(=O)N[C@@H](CCC(=O)O)C(=O)N[C@@H](Cc1c[nH]c2ccccc12)C(=O)N[C@@H](CC(C)C)C(=O)N[C@@H](CCC(=O)O)C(=O)N[C@@H](CO)C(=O)N[C@@H](C)C(N)=O
B5: H-H-Ac4c-QGTFTSDYSKYLDERRAKDFI-K([17-carboxy-heptadecanoyl]-isoGlu-GSGSGG)-WLESA-NH2 (peptide)
peptide: HXQGTFTSDYSKYLDERRAKDFIKWLESA
modifications: Ac4c at position 2; Lys 24 side chain conjugated to [17-carboxy-heptadecanoyl]-isoGlu-GSGSGG; C-terminal amide
B6: H-H-Aib-QGTFTSDYSKYLD-K([17-carboxy-heptadecanoyl]-isoGlu-GSGSGG)-RAAKDFIEWLESA-NH2 (peptide)
peptide: HXQGTFTSDYSKYLDKRAAKDFIEWLESA
modifications: Aib at position 2; Lys 16 side chain conjugated to [17-carboxy-heptadecanoyl]-isoGlu-GSGSGG; C-terminal amide
B7: H-H-Ac4c-QGTFTSDYSKYLD-K([17-carboxy-heptadecanoyl]-isoGlu-GSGSGG)-RAAKDFIEWLESA-NH2 (peptide)
peptide: HXQGTFTSDYSKYLDKRAAKDFIEWLESA
modifications: Ac4c at position 2; Lys 16 side chain conjugated to [17-carboxy-heptadecanoyl]-isoGlu-GSGSGG; C-terminal amide
B8: H-H-Aib-QGTFTSDYSKYLDE-K([17-carboxy-heptadecanoyl]-isoGlu)-AAKDFIEWLESA-NH2 (peptide)
peptide: HXQGTFTSDYSKYLDEKAAKDFIEWLESA
modifications: Aib at position 2; Lys 17 side chain conjugated to [17-carboxy-heptadecanoyl]-isoGlu; C-terminal amide
B9: H-H-Aib-QGTFTSDYSKYLDERAAKDFI-K([17-carboxy-heptadecanoyl]-isoGlu-GSGSGG)-WLESA-NH2 (peptide)
peptide: HXQGTFTSDYSKYLDERAAKDFIKWLESA
modifications: Aib at position 2; Lys 24 side chain conjugated to [17-carboxy-heptadecanoyl]-isoGlu-GSGSGG; C-terminal amide
B10: H-H-Ac4c-QGTFTSDYSKYLDE-K([17-carboxy-heptadecanoyl]-isoGlu)-RAKDFIEWLESA-NH2 (peptide)
peptide: H-H[Ac4c]QGTFTSDYSKYLDEK([γGlu-C18 diacid])RAKDFIEWLESA-NH2
SMILES: CC[C@H](C)[C@H](NC(=O)[C@H](Cc1ccccc1)NC(=O)[C@H](CC(=O)O)NC(=O)[C@H](CCCCN)NC(=O)[C@H](C)NC(=O)[C@H](CCCNC(=N)N)NC(=O)[C@H](CCCCNC(=O)CC[C@H](NC(=O)CCCCCCCCCCCCCCCCC(=O)O)C(=O)O)NC(=O)[C@H](CCC(=O)O)NC(=O)[C@H](CC(=O)O)NC(=O)[C@H](CC(C)C)NC(=O)[C@H](Cc1ccc(O)cc1)NC(=O)[C@H](CCCCN)NC(=O)[C@H](CO)NC(=O)[C@H](Cc1ccc(O)cc1)NC(=O)[C@H](CC(=O)O)NC(=O)[C@H](CO)NC(=O)[C@@H](NC(=O)[C@H](Cc1ccccc1)NC(=O)[C@@H](NC(=O)CNC(=O)[C@H](CCC(N)=O)NC(=O)C1(NC(=O)[C@@H](N)Cc2c[nH]cn2)CCC1)[C@@H](C)O)[C@@H](C)O)C(=O)N[C@@H](CCC(=O)O)C(=O)N[C@@H](Cc1c[nH]c2ccccc12)C(=O)N[C@@H](CC(C)C)C(=O)N[C@@H](CCC(=O)O)C(=O)N[C@@H](CO)C(=O)N[C@@H](C)C(N)=O
B11: H-H-Aib-QGTFTSDYSKYLDS-K([15-carboxy-pentadecanoyl]-isoGlu)-AAHDFVEWLLSA-NH2 (peptide)
peptide: HXQGTFTSDYSKYLDSKAAHDFVEWLLSA
modifications: Aib at position 2; Lys 17 side chain conjugated to [15-carboxy-pentadecanoyl]-isoGlu; C-terminal amide

How the values were obtained:
Assay in all cases: cell-based or functional assay
[1] = target: human glucagon receptor (Glucagon-R) (human, UniProt P47871 26-477)
[2] = target: human glucagon-like peptide 1 receptor (GLP-1R) (human, UniProt P43220 24-463)
[3] = target: T1, endogenous GLP-1 receptor of a murine …
[4] = target: endogenous glucagon receptor of primary rat hepatocytes (rat, UniProt P30082 27-485)
Chain of endogenous glucagon receptor of primary rat hepatocytes (P30082 27-485): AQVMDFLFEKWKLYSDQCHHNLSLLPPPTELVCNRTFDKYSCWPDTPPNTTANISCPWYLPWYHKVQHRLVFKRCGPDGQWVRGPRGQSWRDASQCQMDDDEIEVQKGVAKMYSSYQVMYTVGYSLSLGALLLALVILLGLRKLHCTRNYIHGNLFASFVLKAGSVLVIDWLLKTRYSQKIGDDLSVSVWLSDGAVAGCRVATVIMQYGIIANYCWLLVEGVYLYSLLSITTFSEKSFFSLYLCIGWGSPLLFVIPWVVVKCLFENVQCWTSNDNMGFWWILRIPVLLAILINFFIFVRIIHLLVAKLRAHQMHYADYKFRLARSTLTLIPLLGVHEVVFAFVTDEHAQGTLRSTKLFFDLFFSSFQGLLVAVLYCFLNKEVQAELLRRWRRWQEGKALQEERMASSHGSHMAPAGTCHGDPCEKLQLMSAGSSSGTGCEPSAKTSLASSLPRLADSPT

Chain of human glucagon receptor (Glucagon-R) (P47871 26-477): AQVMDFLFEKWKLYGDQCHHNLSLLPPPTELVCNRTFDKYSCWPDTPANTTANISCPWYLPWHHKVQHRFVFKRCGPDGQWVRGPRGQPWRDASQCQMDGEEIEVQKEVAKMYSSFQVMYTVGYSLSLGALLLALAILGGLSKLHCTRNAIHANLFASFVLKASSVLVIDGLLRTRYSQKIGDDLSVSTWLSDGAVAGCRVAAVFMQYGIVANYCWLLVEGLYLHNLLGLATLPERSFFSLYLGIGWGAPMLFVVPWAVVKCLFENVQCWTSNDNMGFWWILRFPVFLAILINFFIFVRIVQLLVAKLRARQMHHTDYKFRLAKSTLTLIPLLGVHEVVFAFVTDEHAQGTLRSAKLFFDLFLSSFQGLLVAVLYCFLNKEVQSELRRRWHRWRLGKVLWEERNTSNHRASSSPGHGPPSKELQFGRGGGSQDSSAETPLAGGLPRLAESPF

Binder | EC50 hGCGR CHO-K1 [nM] (cAMP, AlphaScreen) [1] | EC50 hGLP-1R CHO-K1 [nM] (cAMP, AlphaScreen) [2] | EC50 [nM] (cAMP in a murine insulinoma cell line) [3] | EC50 [nM] (inhibition of glycogen synthesis rate in primary rat hepatocytes) [4]
B1 | 0.16 | 0.53 | 0.34 | 0.19
B2 | 0.92 | 0.61 | 0.25 | 3.63
B3 | 0.44 | 1.43 | 0.54 | 0.8
B4 | 0.28 | 0.56 | 0.72 | 0.95
B5 | 0.18 | 0.6 | 0.38 | 0.19
B6 | 0.18 | 0.83 | 0.65 | 0.21
H-H[Aib]QGTFTSDYSKYLDK([Peg3-Peg3-γGlu-C18 diacid])RAAKDFIEWLESA-NH2 [H-H-Aib-QGTFTSDYSKYLD-K([17-carboxy-heptadecanoyl]-isoGlu-Peg3-Peg3)-RAAKDFIEWLESA-NH2] | 0.13 | 1.76 | 0.69 | 0.11
B7 | 0.11 | 0.97 | 0.47 | 0.34
H-H[Ac4c]HGTFTSDYSKYLDEK([Peg3-Peg3-γGlu-C18 diacid])RAKDFIEWLESA-NH2 [H-H-Ac4c-HGTFTSDYSKYLDE-K([17-carboxy-heptadecanoyl]-isoGlu-Peg3-Peg3)-RAKDFIEWLESA-NH2] | 0.07 | 0.97 | 0.84 | 0.11
H-H[Ac4c]QGTFTSDYSKYLDERAAKDFIKWLESA-NH2 (not fully specified (residue 24)) [H-H-Ac4c-QGTFTSDYSKYLDERAAKDFI-K([17-carboxy-heptadecanoyl]-isoGlu-GSGSGG)-WLESA-NH2] | 0.52 | 0.33 | 0.37 | 0.43
B8 | 1.08 | 0.41 | 0.6 | 1.53
B9 | 1.48 | 0.7 | 0.15 | 0.94
H-H[Aib]QGTFTSDYSKYLEK([Peg3-Peg3-γGlu-C18 diacid])RAAHDFIEWLESA-NH2 [H-H-Aib-QGTFTSDYSKYLE-K([17-carboxy-heptadecanoyl]-isoGlu-Peg3-Peg3)-RAAHDFIEWLESA-NH2] | 0.31 | 0.8 | 0.36 | 0.29
B10 | 0.07 | 0.48 | 0.81 | 0.45
H-H[Ac4c]QGTFTSDYSKYLDEK([Peg3-Peg3-γGlu-C18 diacid])RAKDFIEWLESA-NH2 [H-H-Ac4c-QGTFTSDYSKYLDE-K([17-carboxy-heptadecanoyl]-isoGlu-Peg3-Peg3)-RAKDFIEWLESA-NH2] | 0.45 | 0.7 | 0.4 | 1.79
B11 | 0.21 | 0.38 | 0.6 | 0.85
